Experimental data taken from article PMC5797146 (Scientific Reports, 2018).

Molecular target: T1, Clostridium difficile toxin A (Clostridioides difficile …, UniProt P16154)
T1 construct: also called TcdA
Experiment: SPR
Conditions: both partners purified

B1: A26.8 VHH Q101K, T103M (VHH)
VHH: QVKLEESGGGLVQAGGSLRLSCAASERTFSRYPVAWFRQAPGAEREFVAVISSTGTSTYYADSVKGRFTISRDNAKVTVYLQMNNLKREDTAVYFCAVNSKRMRLQDPNEYDYWGQGTQVTVSS
notes: source: E. coli TG1, periplasmic extract, purified (IMAC, SEC)
- Kd: 8 nM
- koff: 0.027 s⁻¹
- kon: 3.3e+06 M⁻¹ s⁻¹

B2: A26.8 VHH Q101K, T103K (VHH)
VHH: QVKLEESGGGLVQAGGSLRLSCAASERTFSRYPVAWFRQAPGAEREFVAVISSTGTSTYYADSVKGRFTISRDNAKVTVYLQMNNLKREDTAVYFCAVNSKRKRLQDPNEYDYWGQGTQVTVSS
notes: as for B1
- Kd: 8.2 nM
- koff: 0.04 s⁻¹
- kon: 5e+06 M⁻¹ s⁻¹
